Measured values as given in patent publication US20140178293A1, “METHODS FOR IMAGING BONE PRECURSOR CELLS USING DUAL-LABELED IMAGING AGENTS TO DETECT MMP-9 POSITIVE CELLS” (BAYLOR COLLEGE OF MEDICINE, priority 2011, published 2014).
Read-outs that look alike come from different tables or passages of the source. Positions of bridges follow the written chain, without caps; N, C: chain ends. No end group written: not given here. *: point of attachment. DOTA = O=C(O)CN1CCN(CC(=O)O)CCN(CC(=O)*)CCN(CC(=O)O)CC1

Experiments:
[1] = characterization of fluorescent properties; assay type: physicochemical
Protocol: Fluorescence intensity of the fluorophores was determined using the Fluorolog Tau-3 Spectrofluorometer (Horiba Jobin Yvon, Edison, N.J.) with excitation from a xenon arc lamp and absorbance was recorded using the DU-800 Spectrophotometer (Beckman Coulter, Brea Calif.). Fluorescence excitation and emission spectra were obtained at wavelengths of 785 and 830 nm respectively, with an integration time of 0.3 seconds for 1 μM solutions of IRDye 800CW, M2 and ^68Ga-M2 (n=4). Fluorescence measurements for IRDye 800CW and M2 were performed in aqueous solution under ambient conditions, whereas ^68Ga-M2 was prepared as previously described in NaOAc (pH 4) to provide an accurate representation of the ^68Ga-labeling scheme. Extinction coefficients were determined from the slope of absorbance at 785 nm as a function of the concentration of serial dilutions of each agent. Fluorescence quantum yield was determined by the comparative method of Williams et al. (Williams et al., 1983) using the quantum yield of ICGO (Φ=0.016) at 785/830 nm as a standard.

[2] = in vitro stability of ^64Cu-M2 in PBS or 500-fold excess DTPA (radio-HPLC); assay type: physicochemical; conditions: room temperature, normalized to 100% at t=0
Protocol: (§1) After radiolabeling, 150 μl of ^64Cu-M2 was diluted in equal volumes of PBS or DTPA solution and kept at room temperature. Aliquots were taken at 0, 2, 6 and 24 hrs post-incubation and analyzed by radio-HPLC. To evaluate serum stability, 150 μl of ^64Cu-M2 was added to 150 μl of 50% mouse serum and incubated at 37° C. An 80 μl aliquot was taken at each of the above-mentioned time points and added to 160 μl ice-cold acetonitrile. The samples were centrifuged at 14,000 g for 5 min and the supernatant was collected and analyzed by radio-HPLC.

MMP-9 [3] = biological target: T1, MMP-9 (Mus musculus, UniProt P41245)
in vitro = in vitro ADME; conditions: mouse, serum
Protocol: as §1

MMP-9 [4] = biological target: T1, MMP-9; assay: in vivo NIR fluorescence imaging of ^64Cu-M2 in murine model of BMP-2 induced HO; design: injected intramuscularly into each hind limb quadriceps muscle of nonobese diabetic/severely compromised immunodeficient (NOD/SCID) mice; from tissue; host or cells: hind limb muscle of living NOD/SCID mice injected with AdBMP2- or Adempty-transduced human fibroblasts
Protocol: NIR fluorescence images were acquired using custom-built fluorescence imaging systems (Houston et al., 2005) 18 hours after intravenous administration of ^64Cu-M2. Briefly, a field of view was illuminated with 785 nm of light from a laser diode, outfitted with a convex lens and diffuser to create a uniform excitation field. The fluorescence was collected through holographic and interference filters placed before a Nikon camera lens. The images were finally captured by an electron-multiplying charge-coupled device camera (PhotonMax 512; Princeton Instruments, Princeton, N.J.) with 200 to 400 milliseconds of integration time. For acquisition of white-light images, the optical filters were removed, and a low-power lamp illuminated the subject. Image acquisition was accomplished by V++ software (Aukland, New Zealand).

[5] = aqueous solution, 785/830 nm, used as standard; cited from earlier work
[6] = biological target: MMP-9 (AnaSpec, Fremont, Calif.) (UniProt P14780 107-707, limits assumed); assay: cell-based or functional assay
[7] = biological target: MMP-9 in mouse hind limb tissue (BMP-2 induced HO model, NOD/SCID mice) (mouse, UniProt P41245 108-730, limits assumed); assay: cell-based or functional assay
[8] = 1 μM solutions, IRDye 800CW and M2 aqueous, ^68Ga-M2 in NaOAc pH 4
[9] = 4 days post-implantation with 200x M1 as blocking (24 hours prior)

T1 sequence (P41245 108-730): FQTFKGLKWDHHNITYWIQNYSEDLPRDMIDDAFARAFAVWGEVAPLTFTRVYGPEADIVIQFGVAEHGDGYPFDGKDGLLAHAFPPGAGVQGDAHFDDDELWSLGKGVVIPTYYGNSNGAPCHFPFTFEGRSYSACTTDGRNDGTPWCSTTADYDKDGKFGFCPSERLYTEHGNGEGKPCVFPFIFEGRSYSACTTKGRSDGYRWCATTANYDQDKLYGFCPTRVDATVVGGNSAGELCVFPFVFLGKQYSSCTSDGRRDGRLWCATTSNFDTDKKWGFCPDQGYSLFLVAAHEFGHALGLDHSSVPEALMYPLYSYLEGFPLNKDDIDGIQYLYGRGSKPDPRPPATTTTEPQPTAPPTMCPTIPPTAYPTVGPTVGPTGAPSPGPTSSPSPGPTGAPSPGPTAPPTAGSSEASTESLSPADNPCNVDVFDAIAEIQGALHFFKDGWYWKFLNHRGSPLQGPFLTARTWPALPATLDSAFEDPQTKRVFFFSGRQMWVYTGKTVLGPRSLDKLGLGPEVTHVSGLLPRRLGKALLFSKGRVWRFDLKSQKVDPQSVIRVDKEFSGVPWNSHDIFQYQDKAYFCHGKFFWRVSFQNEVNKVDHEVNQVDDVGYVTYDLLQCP
Chain of MMP-9 in mouse hind limb tissue (BMP-2 induced HO model, NOD/SCID mice) (P41245 108-730 limits assumed): as the sequence (P41245 108-730) above
Chain of MMP-9 (AnaSpec, Fremont, Calif.) (P14780 107-707 limits assumed): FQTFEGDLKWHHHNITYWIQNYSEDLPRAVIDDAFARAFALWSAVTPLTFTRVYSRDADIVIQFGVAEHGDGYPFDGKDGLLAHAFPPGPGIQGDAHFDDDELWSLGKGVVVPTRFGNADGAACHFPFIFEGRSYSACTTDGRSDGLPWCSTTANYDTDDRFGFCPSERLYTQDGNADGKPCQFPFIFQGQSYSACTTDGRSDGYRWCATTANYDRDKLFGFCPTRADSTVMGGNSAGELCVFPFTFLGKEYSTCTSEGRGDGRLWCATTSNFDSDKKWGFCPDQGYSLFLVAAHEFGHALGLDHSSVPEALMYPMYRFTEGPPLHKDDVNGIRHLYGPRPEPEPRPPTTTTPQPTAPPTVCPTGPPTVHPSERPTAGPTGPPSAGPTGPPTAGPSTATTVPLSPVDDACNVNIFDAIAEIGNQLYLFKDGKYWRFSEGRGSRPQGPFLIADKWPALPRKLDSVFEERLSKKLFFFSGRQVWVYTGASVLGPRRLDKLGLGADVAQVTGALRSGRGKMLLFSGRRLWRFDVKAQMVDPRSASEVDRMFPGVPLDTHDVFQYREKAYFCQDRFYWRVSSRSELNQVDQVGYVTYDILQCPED

CC1(C)C(=CC=C2CCCC(C=CC3=[N+](CCCCCC(=O)[O-])c4ccc(S(=O)(=O)[O-])cc4C3(C)C)=C2Oc2ccc(S(=O)(=O)[O-])cc2)N(CCCCS(=O)(=O)[O-])c2ccc(S(=O)(=O)[O-])cc21.[Na+].[Na+].[Na+].[Na+] [IRDye 800CW, reference compound]
Emission maximum [1, 8]: 830 nm
Excitation wavelength [1, 8]: 785 nm
Quantum yield ([1]; 785/830 nm, relative to ICG (Φ=0.016)): 0.034
Extinction coefficient ([1]; absorbance at 785 nm, serial dilutions, mean ± SD (n=4)): 181,458 ± 2,189 M^−1cm^−1

CC(C)C[C@@H]1NC(=O)[C@H]([C@@H](C)O)NC(=O)[C@H](Cc2ccccc2)NC(=O)CNC(=O)[C@H](Cc2c[nH]c3ccccc23)NC(=O)[C@H](Cc2c[nH]cn2)NC(=O)[C@H](C)NC(=O)[C@@H](NC(=O)[C@H](CCCCNC(=O)CCCCC[N+]2=C(C=CC3=C(Oc4ccc(S(=O)(=O)O)cc4)C(=CC=C4N(CCCCS(=O)(=O)O)c5ccc(S(=O)(=O)O)cc5C4(C)C)CCC3)C(C)(C)c3cc(S(=O)(=O)[O-])ccc32)NC(=O)CN2CCN(CC(=O)O)CCN(CC(=O)O)CCN(CC(=O)O)CC2)CCCCNC(=O)C[C@@H](C(=O)O)NC1=O (single isomer, unassigned) [^64Cu-M2, metal not drawn]
percentage of intact component ([2]; DTPA, 2 hrs): 97.8 ± 1.3%
percentage of intact component ([2]; DTPA, 6 hrs): 97.7 ± 0.6%
percentage of intact component ([2]; DTPA, 24 hrs): 96.4±1.1%
percentage of intact component ([2]; PBS, 24 hrs): 98.9 ± 1.5%
Target/background ratio (PET/CT) (MMP-9 [3]; 2 days post-implantation, 200 μCi, 6 nmol i.v.): 3.29±0.9
Target/background ratio (PET/CT) (MMP-9 [3]; [9]): 1.44±0.66
Target/background ratio (PET/CT) (MMP-9 [3]; 4 days post-implantation, 200 μCi, 6 nmol i.v.): 4.02±1.39
Target/background ratio (PET/CT) (MMP-9 [3]; 6 days post-implantation, 200 μCi, 6 nmol i.v.): 3.41±0.51
% injected dose/g (PET/CT) (MMP-9 [3]; NOD/SCID, mouse, in vivo, iv, 6 nmol): 0.61 ± 0.04 % injected dose/g
whole-body distribution (MMP-9 [3]; mouse, in vivo, iv): slow clearance from circulation along with uptake in the liver and kidneys
remaining at 2 h (in vitro): 99.6 ± 0.6%
remaining at 6 h (in vitro): 94.8 ± 0.6%
remaining at 24 h (in vitro): 53.7 ± 3.7%
Target/background ratio (NIR) (MMP-9 [4]; 2 days post-implantation, 18 hours after i.v. administration): 1.13 ± 0.03
Target/background ratio (NIR) (MMP-9 [4]; [9]): 1.13 ± 0.18
Target/background ratio (NIR) (MMP-9 [4]; 4 days post-implantation, 18 hours after i.v. administration): 1.24 ± 0.05
Target/background ratio (NIR) (MMP-9 [4]; 6 days post-implantation, 18 hours after i.v. administration): 1.10 ± 0.03

(lactam 2,10) DOTA-KKAHWGFTLD ({DOTA}-KKAHWGFTLD; lactam 2-10) [M1]
bone formation by μCT after blocking dose (MMP-9 [3]; 200-fold excess of M1, μCT after 7 days): still exhibited bone formation

CC1(C)C(/C=C/C=C/C=C/C=C2\N(CCCCS(=O)(=O)O)c3ccc4ccccc4c3C2(C)C)=[N+](CCCCS(=O)(=O)[O-])c2ccc3ccccc3c21 [ICG, indocyanine green]
quantum yield of standard [5]: 0.016

{DOTA}-KKAHWGFTLD (lactam 2-10; also: IRDye 800CW conjugated through an amine, site not given here) [dual-conjugate M2 (M1 conjugated with IRDye 800CW)]
inhibition of MMP-9 by gelatin zymography [6]: 10 fold decrease compared to M1

B1: ^64Cu-M2 (peptide)
peptide: {DOTA}-KKAHWGFTLD
modifications: lactam 2-10; also: DOTA chelating 64Cu, IRDye 800CW conjugated through a reactive amine group
Target/background ratio (NIR), day 2 post-implantation [7]: 1.13 ratio
Target/background ratio (NIR), day 4 post-implantation [7]: 1.24 ratio
Target/background ratio (NIR), day 4 with 200x M1 as blocking [7]: 1.13 ratio
Target/background ratio (NIR), day 6 post-implantation [7]: 1.1 ratio
Target/background ratio (PET/CT), day 2 post-implantation [7]: 3.29 ratio
Target/background ratio (PET/CT), day 4 post-implantation [7]: 4.02 ratio
Target/background ratio (PET/CT), day 4 with 200x M1 as blocking [7]: 1.44 ratio
Target/background ratio (PET/CT), day 6 post-implantation [7]: 3.41 ratio
